Laboratory results as given in US20210388087A1 (Chugai, published 2021).

Target: T1, CD3 epsilon homodimer protein (UniProt P07766 23-126)
T1 construct: immobilized on Sensor chip CM4 by amine coupling; also called CD3 (CD3 epsilon)
Experiment: SPR (Biacore T200), CD3 epsilon homodimer on CM4 chip, one-arm antibody as analyte, 25 C;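 note: homodimer attached to the sensor surface via amine coupling, HBS-EP+ used as running buffer during binding runs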

T1 sequence (P07766 23-126): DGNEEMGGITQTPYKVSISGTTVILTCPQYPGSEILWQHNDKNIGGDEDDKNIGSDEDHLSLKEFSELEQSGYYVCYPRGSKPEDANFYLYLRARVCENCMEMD

B1: CE115HA000 W33H one-arm antibody (antibody, human IgG1, kappa, L234A L235A, N297A, name in Kabat numbering)
heavy: QVQLVESGGGVVQPGRSLRLSCAASGFTFSNAHMHWVRQAPGKGLEWVAQIKAKSNNYATYYAESVKGRFTISRDDSKNSLYLQMNSLKTEDTAVYYCRYVHYGAYYGVDAWGQGTTVTVSSASTKGPSVFPLAPSSKSTSGGTAALGCLVKDYFPEPVTVSWNSGALTSGVHTFPAVLQSSGLYSLSSVVTVPSSSLGTQTYICNVNHKPSNTKVDKKVEPKSCDKTHTCPPCPAPEAAGGPSVFLFPPKPKDTLMISRTPEVTCVVVDVSHEDPEVKFNWYVDGVEVHNAKTKPREEQYASTYRVVSVLTVLHQDWLNGKEYKCKVSNKALPAPIEKTISKAKGQPREPQVYTLPPSRCELTKNQVSLSCAVKGFYPSDIAVEWESNGQPENNYKTTPPVLDSDGSFFLVSKLTVDKSRWQQGNVFSCSVMHEALHNHYTQKSLSLSPDYKDDDDK
chain: EPKSSDKTHTCPPCPAPELLGGPSVFLFPPKPKDTLMISRTPEVTCVVVDVSHEDPEVKFNWYVDGVEVHNAKTKPREEQYNSTYRVVSVLTVLHQDWLNGKEYKCKVSNKALPAPIEKTISKAKGQPREPQVCTLPPSRDELTKNQVSLWCLVKGFYPSDIAVEWESNGQPENNYKTTPPVLDSDGSFFLYSKLTVDKSRWQQGNVFSCSVMHEALHNRYTQKSLSLSP
light: DIVMTQSPLSLPVTPGEPASISCRSSQSLVHSNRNTYLHWYQQKPGQAPRLLIYKVSNRFSGVPDRFSGSGSGTDFTLKISRVEAEDVGVYYCGQGTQVPYTFGQGTKLEIKRTVAAPSVFIFPPSDEQLKSGTASVVCLLNNFYPREAKVQWKVDNALQSGNSQESVTEQDSKDSTYSLSSTLTLSKADYEKHKVYACEVTHQGLSSPVTKSFNRGEC
ratio of amounts bound (altered form / CE115HA000): 0.13

B2: CE115HA000 W33L one-arm antibody (antibody, human IgG1, kappa, L234A L235A, N297A, name in Kabat numbering)
heavy: QVQLVESGGGVVQPGRSLRLSCAASGFTFSNALMHWVRQAPGKGLEWVAQIKAKSNNYATYYAESVKGRFTISRDDSKNSLYLQMNSLKTEDTAVYYCRYVHYGAYYGVDAWGQGTTVTVSSASTKGPSVFPLAPSSKSTSGGTAALGCLVKDYFPEPVTVSWNSGALTSGVHTFPAVLQSSGLYSLSSVVTVPSSSLGTQTYICNVNHKPSNTKVDKKVEPKSCDKTHTCPPCPAPEAAGGPSVFLFPPKPKDTLMISRTPEVTCVVVDVSHEDPEVKFNWYVDGVEVHNAKTKPREEQYASTYRVVSVLTVLHQDWLNGKEYKCKVSNKALPAPIEKTISKAKGQPREPQVYTLPPSRCELTKNQVSLSCAVKGFYPSDIAVEWESNGQPENNYKTTPPVLDSDGSFFLVSKLTVDKSRWQQGNVFSCSVMHEALHNHYTQKSLSLSPDYKDDDDK
chain: EPKSSDKTHTCPPCPAPELLGGPSVFLFPPKPKDTLMISRTPEVTCVVVDVSHEDPEVKFNWYVDGVEVHNAKTKPREEQYNSTYRVVSVLTVLHQDWLNGKEYKCKVSNKALPAPIEKTISKAKGQPREPQVCTLPPSRDELTKNQVSLWCLVKGFYPSDIAVEWESNGQPENNYKTTPPVLDSDGSFFLYSKLTVDKSRWQQGNVFSCSVMHEALHNRYTQKSLSLSP
light: DIVMTQSPLSLPVTPGEPASISCRSSQSLVHSNRNTYLHWYQQKPGQAPRLLIYKVSNRFSGVPDRFSGSGSGTDFTLKISRVEAEDVGVYYCGQGTQVPYTFGQGTKLEIKRTVAAPSVFIFPPSDEQLKSGTASVVCLLNNFYPREAKVQWKVDNALQSGNSQESVTEQDSKDSTYSLSSTLTLSKADYEKHKVYACEVTHQGLSSPVTKSFNRGEC
ratio of amounts bound (altered form / CE115HA000): 0.1
